Two molecules from publication PMC6971037, “Molecular basis for histidine N3-specific methylation of actin H73 by SETD3” (Cell Discovery, 2020) can be followed below.

Assay [1] has as its target T1, SETD3 residues 20–494 (as labelled for the ITC titrations) (human, UniProt Q86TU7 20-494).
T1 construct: also called SETD3_(20–494)
T1 sequence (looked up): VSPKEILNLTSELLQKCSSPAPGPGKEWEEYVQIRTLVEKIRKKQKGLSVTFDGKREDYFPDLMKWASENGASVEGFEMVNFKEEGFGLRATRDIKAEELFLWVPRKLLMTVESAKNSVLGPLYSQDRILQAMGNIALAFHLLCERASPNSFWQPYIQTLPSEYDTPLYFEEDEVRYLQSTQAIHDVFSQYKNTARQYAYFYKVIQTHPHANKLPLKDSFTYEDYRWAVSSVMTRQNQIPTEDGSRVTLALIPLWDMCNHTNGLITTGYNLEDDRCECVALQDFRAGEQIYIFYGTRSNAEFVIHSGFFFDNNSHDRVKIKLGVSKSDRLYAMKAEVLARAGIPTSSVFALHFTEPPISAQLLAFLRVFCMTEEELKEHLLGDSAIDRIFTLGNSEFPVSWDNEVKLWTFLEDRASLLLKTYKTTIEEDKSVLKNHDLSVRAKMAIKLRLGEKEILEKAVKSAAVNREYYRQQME
The assay is described as follows: ITC; SETD3 titrated with actin peptide in the presence of SAH. The following applies: both partners purified.

For assay [2], the target named is T1, SETD3 residues 20–494 (as labelled for …). The assay is described as follows: ITC; SETD3 titrated with actin peptide in the presence of SFG (sinefungin). The following applies: both partners purified. (In general: In ITC the heat of successive injections is recorded.)

B1: β-actin peptide (60–81) (peptide, UniProt P60709 60-81, looked up)
peptide: SKRGILTLKYPIEHGIVTNWDD
notes: β-actin, residues 60-81; residues 66-81 were built in the structure; also called wild-type actin peptide
By Kd is commonly meant the free concentration of one partner at which half of the binding sites on the other are occupied at equilibrium, for simple one-to-one binding. As for B1, the Kd was determined as 150 nM in assay [1] and 5010 nM in assay [2].

B2: H73A mutant actin peptide (peptide, UniProt P60709 60-81, looked up)
peptide: SKRGILTLKYPIEAGIVTNWDD
notes: β-actin peptide with H73A; The limits 60-81 are those of the wild-type peptide; also called H73A actin peptide; H73A mutant peptide
With B2, the Kd in assay [1] came to 810 nM; in assay [2], 1000 nM.
